Assay results from publication PMC13602928.

How the values were obtained:
[1] = target: stripped Anabaena flos-aquae (Ana) gas vesicles (GV shell, native GvpC removed) (Anabaena flos-aquae) (UniProt P10397)
[2] = target: stripped Anabaena flos-aquae (Ana) gas vesicles (GV shell, native GvpC removed) (Anabaena flos-aquae) (UniProt P10397); remark: listed apart in the source

Chain of UniProt P10397 (P10397 whole entry): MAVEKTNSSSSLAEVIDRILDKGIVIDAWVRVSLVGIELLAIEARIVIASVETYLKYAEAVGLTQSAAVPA

midpoint collapse pressure of UReKA2 GVs (pressurized absorbance spectroscopy), after PKA phosphorylation [1] [kPa]	nonlinear (xAM) ultrasound signal of purified UReKA2 GVs at 489 kPa, with PKA against without PKA [1] [fold]	time course of the nonlinear ultrasound signal of UReKA2 GVs after PKA addition; time to maximal contrast (signal first detectable after 2-3 h) [2] [h]	midpoint collapse pressure of UReKA1 GVs (pressurized absorbance spectroscopy), after PKA phosphorylation [1] [kPa]	nonlinear (xAM) ultrasound signal of purified UReKA1 GVs at 350 kPa, with PKA against without PKA [1] [fold]	time course of the nonlinear ultrasound signal of UReKA1 GVs after PKA addition; time to maximal contrast (signal first detectable after 2-3 h) [2] [h]	Substance
283	12.9	12	–	–	–	phosphorylated UReKA2 GvpC (pThr81)
–	–	–	227	4.5	8	phosphorylated UReKA1 GvpC (pThr60)
